B1: regulatory (R) domain of the N-methyl-D-aspartate receptor NR1 subunit, NR1(19-380) (domain or fragment)
chain: not shown
B2: regulatory (R) domain of the N-methyl-D-aspartate receptor NR2B subunit, NR2B(27-390) (domain or fragment)
chain: not shown
B3: regulatory (R) domain of the N-methyl-D-aspartate receptor NR2A subunit, NR2A(23-389) (domain or fragment)
chain: not shown

Tests used:
SEC = target: the molecule itself; assay: SEC
[1] = target: B3; assay: co-IP
[2] = target: B2; assay: co-IP

Binder | percentage of the monomer form (SEC) | binding result [1] | binding result [2]
B1 | 37% | binds | binds
B2 | 71% |  | 
B3 | 73% |  | 

From PMC2690642 (Journal of neurochemistry, 2008)
